Experimental data taken from the supplement of paper PMC6757056.
± gives the standard deviation of the averaged measurements.

B1: library; a variant is named by its letters at N, in order (parent)
chain: GCUGUCACCGAGAAACUGUGAAGUAUAUCUUAAACCUGGGCACUUAAAAGAUAUAUGGAGUUAGUAGUGCAACCUGCUCGGUCUGAUGAGUCCNNNNNNGGACGAAACAGC

How the values were obtained:
[1] = variants of: B1; experiment: normalized RNA/DNA level without ligand (relative to sTRSVctl = 100) (log10 (% of sTRSVctl)); HEK293T; ligand: cyclic di-GMP (c-di-GMP-II aptamer); higher = less ribozyme self-cleavage, higher mRNA level; conditions: reporter: mCherry (pCS4076), ligand present: no
Outline: (§1)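 HEK293T cells received ligand, where used, 1 h before being transfected with 4 µg per 6-well well of library plasmids encoding reporter-linked ribozyme switches. After 72 h, RNA was extracted with EDTA and sequenced. RNA level was derived from RNA reads per DNA read, normalized to a spiked-in non-cleaving sequence or the top sequences, then scaled and log-transformed. Values were ×100 then log10, the top set was 25 sequences, and the minimum was 100 DNA reads.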

[2] = variants of: B1; experiment: normalized RNA/DNA level with ligand (relative to sTRSVctl = 100) (log10 (% of sTRSVctl)); HEK293T; ligand: cyclic di-GMP (c-di-GMP-II aptamer); ligand concentration (+) RNA-Seq: 1 mM; higher = less ribozyme self-cleavage, higher mRNA level; conditions: reporter: mCherry (pCS4076), ligand present: yes
Outline: as §1

| Variant | normalized RNA/DNA level without ligand (log10) [1] | normalized RNA/DNA level with ligand (log10) [2] |
| --- | --- | --- |
| GCUGUCACCGAGAAACUGUGAAGUAUAUCUUAAACCUGGGCACUUAAAAGAUAUAUGGAGUUAGUAGUGCAACCUGCUCGGUCUGAUGAGUCCUCGGUUGGACGAAACAGC | 1.61 ± 0.093 | 1.79 ± 0.082 |
| GCUGUCACCGAGAAACUGUGAAGUAUAUCUUAAACCUGGGCACUUAAAAGAUAUAUGGAGUUAGUAGUGCAACCUGCUCGGUCUGAUGAGUCCGAUCACGGACGAAACAGC | 1.727 ± 0.016 | 1.84 ± 0.085 |
| GCUGUCACCGAGAAACUGUGAAGUAUAUCUUAAACCUGGGCACUUAAAAGAUAUAUGGAGUUAGUAGUGCAACCUGCUCGGUCUGAUGAGUCCUGCGAAGGACGAAACAGC | 1.69 ± 0.054 | 1.784 ± 0.013 |
| GCUGUCACCGAGAAACUGUGAAGUAUAUCUUAAACCUGGGCACUUAAAAGAUAUAUGGAGUUAGUAGUGCAACCUGCUCGGUCUGAUGAGUCCCGCUGCGGACGAAACAGC | 1.806 ± 0.0025 | 1.9 ± 0.092 |
| GCUGUCACCGAGAAACUGUGAAGUAUAUCUUAAACCUGGGCACUUAAAAGAUAUAUGGAGUUAGUAGUGCAACCUGCUCGGUCUGAUGAGUCCUAUGCAGGACGAAACAGC | 1.77 ± 0.061 | 1.87 ± 0.16 |
| GCUGUCACCGAGAAACUGUGAAGUAUAUCUUAAACCUGGGCACUUAAAAGAUAUAUGGAGUUAGUAGUGCAACCUGCUCGGUCUGAUGAGUCCCAGAGAGGACGAAACAGC | 1.41 ± 0.064 | 1.64 ± 0.13 |
| GCUGUCACCGAGAAACUGUGAAGUAUAUCUUAAACCUGGGCACUUAAAAGAUAUAUGGAGUUAGUAGUGCAACCUGCUCGGUCUGAUGAGUCCAGUACUGGACGAAACAGC | 1.7515 ± 2.5e-05 | 1.85 ± 0.089 |
| GCUGUCACCGAGAAACUGUGAAGUAUAUCUUAAACCUGGGCACUUAAAAGAUAUAUGGAGUUAGUAGUGCAACCUGCUCGGUCUGAUGAGUCCAGGAACGGACGAAACAGC | 1.54 ± 0.12 | 1.68 ± 0.12 |
| GCUGUCACCGAGAAACUGUGAAGUAUAUCUUAAACCUGGGCACUUAAAAGAUAUAUGGAGUUAGUAGUGCAACCUGCUCGGUCUGAUGAGUCCAGAUGUGGACGAAACAGC | 1.56 ± 0.036 | 1.77 ± 0.054 |
| GCUGUCACCGAGAAACUGUGAAGUAUAUCUUAAACCUGGGCACUUAAAAGAUAUAUGGAGUUAGUAGUGCAACCUGCUCGGUCUGAUGAGUCCUACAAAGGACGAAACAGC | 1.65 ± 0.041 | 1.8 ± 0.057 |
| GCUGUCACCGAGAAACUGUGAAGUAUAUCUUAAACCUGGGCACUUAAAAGAUAUAUGGAGUUAGUAGUGCAACCUGCUCGGUCUGAUGAGUCCAGGUGGGGACGAAACAGC | 1.69 ± 0.031 | 1.78 ± 0.12 |
| GCUGUCACCGAGAAACUGUGAAGUAUAUCUUAAACCUGGGCACUUAAAAGAUAUAUGGAGUUAGUAGUGCAACCUGCUCGGUCUGAUGAGUCCUUCGAGGGACGAAACAGC | 1.6344 ± 1.3e-05 | 1.81 ± 0.14 |
| GCUGUCACCGAGAAACUGUGAAGUAUAUCUUAAACCUGGGCACUUAAAAGAUAUAUGGAGUUAGUAGUGCAACCUGCUCGGUCUGAUGAGUCCAUUCUGGGACGAAACAGC | 1.68 ± 0.071 | 1.81 ± 0.11 |
| GCUGUCACCGAGAAACUGUGAAGUAUAUCUUAAACCUGGGCACUUAAAAGAUAUAUGGAGUUAGUAGUGCAACCUGCUCGGUCUGAUGAGUCCAUUAGUGGACGAAACAGC | 1.686 ± 0.01 | 1.83 ± 0.11 |
| GCUGUCACCGAGAAACUGUGAAGUAUAUCUUAAACCUGGGCACUUAAAAGAUAUAUGGAGUUAGUAGUGCAACCUGCUCGGUCUGAUGAGUCCGCUUCGGGACGAAACAGC | 1.67 ± 0.022 | 1.76 ± 0.076 |
| GCUGUCACCGAGAAACUGUGAAGUAUAUCUUAAACCUGGGCACUUAAAAGAUAUAUGGAGUUAGUAGUGCAACCUGCUCGGUCUGAUGAGUCCUAGAGCGGACGAAACAGC | 1.712 ± 0.005 | 1.85 ± 0.047 |
| GCUGUCACCGAGAAACUGUGAAGUAUAUCUUAAACCUGGGCACUUAAAAGAUAUAUGGAGUUAGUAGUGCAACCUGCUCGGUCUGAUGAGUCCAUUGAGGGACGAAACAGC | 1.57 ± 0.018 | 1.7 ± 0.13 |
| GCUGUCACCGAGAAACUGUGAAGUAUAUCUUAAACCUGGGCACUUAAAAGAUAUAUGGAGUUAGUAGUGCAACCUGCUCGGUCUGAUGAGUCCCGCUCGGGACGAAACAGC | 1.77 ± 0.077 | 1.88 ± 0.16 |
| GCUGUCACCGAGAAACUGUGAAGUAUAUCUUAAACCUGGGCACUUAAAAGAUAUAUGGAGUUAGUAGUGCAACCUGCUCGGUCUGAUGAGUCCACUCUGGGACGAAACAGC | 1.602 ± 0.0083 | 1.81 ± 0.096 |
| GCUGUCACCGAGAAACUGUGAAGUAUAUCUUAAACCUGGGCACUUAAAAGAUAUAUGGAGUUAGUAGUGCAACCUGCUCGGUCUGAUGAGUCCGCUUAUGGACGAAACAGC | 1.6 ± 0.017 | 1.76 ± 0.13 |
| GCUGUCACCGAGAAACUGUGAAGUAUAUCUUAAACCUGGGCACUUAAAAGAUAUAUGGAGUUAGUAGUGCAACCUGCUCGGUCUGAUGAGUCCGGUCUAGGACGAAACAGC | 1.52 ± 0.046 | 1.72 ± 0.039 |
| GCUGUCACCGAGAAACUGUGAAGUAUAUCUUAAACCUGGGCACUUAAAAGAUAUAUGGAGUUAGUAGUGCAACCUGCUCGGUCUGAUGAGUCCGGGAGUGGACGAAACAGC | 1.67 ± 0.071 | 1.72 ± 0.16 |
| GCUGUCACCGAGAAACUGUGAAGUAUAUCUUAAACCUGGGCACUUAAAAGAUAUAUGGAGUUAGUAGUGCAACCUGCUCGGUCUGAUGAGUCCCUAUCGGGACGAAACAGC | 1.79 ± 0.047 | 1.88 ± 0.12 |
| GCUGUCACCGAGAAACUGUGAAGUAUAUCUUAAACCUGGGCACUUAAAAGAUAUAUGGAGUUAGUAGUGCAACCUGCUCGGUCUGAUGAGUCCGUCACAGGACGAAACAGC | 1.663 ± 0.0013 | 1.77 ± 0.17 |
| GCUGUCACCGAGAAACUGUGAAGUAUAUCUUAAACCUGGGCACUUAAAAGAUAUAUGGAGUUAGUAGUGCAACCUGCUCGGUCUGAUGAGUCCUUAAGCGGACGAAACAGC | 1.734 ± 0.0092 | 1.85 ± 0.078 |
| GCUGUCACCGAGAAACUGUGAAGUAUAUCUUAAACCUGGGCACUUAAAAGAUAUAUGGAGUUAGUAGUGCAACCUGCUCGGUCUGAUGAGUCCCUGAGGGGACGAAACAGC | 1.73 ± 0.031 | 1.88 ± 0.16 |
